This is an account of results in patent US20240131155A1, “T CELLS FOR USE IN THERAPY” (Erasmus University Medical Center Rotterdam, priority 2021, published 2024).

Peptide text beside a SMILES is read from it.

The subject of experiment [1] is CD8+ T cells. The experiment can be described thus: Enrichment of epitope-specific CD8 T cells from healthy donors, epitope-specific IFNg production (ELISA). It is filed as cell-based, human. Conditions: Table 4; positive co-cultures / co-cultures tested. On the procedure: (§1) Enrichment of epitope-specific CD8 T cells was performed according to the protocol described by Butler et al., Clin Cancer Res.;13(6):1857-1867 (2007), doi:10.1158/1078-0432, but included the following amendments. CD8+ T lymphocytes were collected from PBMCs by magnetic-activated cell sorting (MACS) according to the CD8 isolation kit (Miltenyi Biotec). CD8+ T cells with >95% purity were subsequently cultured in T cell medium supplemented with IL-2 (36 IU/mL; but no gentamycin) for 1 day, after which expansion cycles started. K562ABC cells (kindly provided by prof. Bruce Levine, University of Pennsylvania, PA) were loaded with 10 μg/ml ROPN1 and/or ROPN1B peptide and incubated for 5 h at RT in serum-free medium, after which cells were washed and fixed with 0,1% paraformaldehyde. After washing, K562ABC cells were suspended at 0.1×10^6/mL and co-cultured with T cells in a 1:20 ratio. IL-2 (36 IU/mL) and IL-15 ([…]) were added at days 1 and 3 days after start of co-culture, and after 6 days, T cells were counted, suspended at 2×10^6/mL and rested for 1 day, after which the next cycle commenced (this schedule continued up to 4 or 5 cycles). Following 4 and 5 cycles, T cells were stained with pMHC multimers (HLA*0201/MLN, Immudex, Copenhagen, Denmark). pMHC-PE were pre-incubated at RT for 10 min followed by incubation with 7AAD, anti-CD3-FITC and anti-CD8-APC for 20 min. Cells were fixed with 1% paraformaldehyde and TCR expression was measured with flow cytometry and analyzed using FlowJoX software. FIG. 4A schematically depicts the procedure to enrich epitope-specific T cells, and obtainthe corresponding TCR genes.
Enriched T cells were tested for ROPN1 and/or ROPN1B epitope-specific IFNY production. To this end, T2 cells (4×10^6/mL) were loaded with peptide (20 ng/mL) for 30 min. T cells (2×10^5) were cultured in a 1:1 ratio with T2 cells in a round bottom 96-wells plate, and the next day supernatant was collected and IFN-γ production was measured with an Enzyme-linked immunosorbent assay (ELISA, Invitrogen) according to manufacturer's protocol (FIG. 4B). T2 cells without peptide were included as a negative control; and staphylococcal enterotoxin B (0.1 μg, Sigma) was used as a positive control.
Enrichment of epitope-specific T cells was performed by co-culturing naïve T cells with CD11c-positive cells that were loaded with peptide. PBMCs were passed through a cell strainer (70 μm) and used for the isolation of naïve T cells and CD11c cells. To isolate CD11c-positive cells (typically dendritic cells, DC), PBMCs were stained for 10 mM at 4° C. with Fc block (10 μL/10^7 PBMCs, BD Pharmingen, Vianen, the Netherlands), after which cells were stained with CD11c-PE antibody (10 μL/10^7 PBMCs, BD Pharmingen) for 30 mM at 4° C., washed, and incubated with PE beads (10 μL/10^7 PBMCs, Miltenyi Biotech, Bergisch Gladbach, Germany) for another […] at 4° C. After washing, cells were dissolved in magnetic-activated cell sorting (MACS) buffer and passed through a MACS LS column (Miltenyi Biotec) to positively select CD11c cells. After selection, CD11c cells were irradiated with 30 Gy, and cultured overnight in a 24-wells plate (1×10^6/mL) in RPMI medium supplemented with 1% human serum (Sanquin), 1% antibiotics, […] L-glutamine, a DC maturation cocktail (a mixture of GM-CSF (10 ng/mL, ImmunoTools, Germany), IL-4 (10 ng/mL, ImmunoTools), LPS (100 ng/mL, Invitrogen, Goteborg, Sweden) and IFNY (10 ng/mL, Preprotech, London, United Kingdom)), as well as peptide (10 pg/mL). Naïve T cells were isolated with use of the Naïve T Cell isolation kit (Miltenyi Biotec) according to the manufacturer's protocol, and suspended in RPMI medium supplemented with 5% human serum (Sanquin), 1% antibiotics, […] L-glutamine and IL-7 (5 ng/mL, BD Pharmingen). The run-through of the naïve T cell selection was frozen down and used for re-stimulation of epitope-specific T cells. […]

A further experiment has as its target T1, HLA-A2 (Homo sapiens, UniProt P04439, D140Y/D185E/D98H/E176V/E277Q/G131W/G231S/I119V/I121R/I166T/I218V/L300P/L318F/N151K/N90K/P208A/P217A/Q86G/Q94H/R138H/R169H/T345S).
T1 construct: The HLA-A2 stabilization assay was performed using T2 cells; endogenous in cells; host or cells: T2 cells (LCLxT lymphoblastoid hybrid cell line 0.1743CEM.T2)
The experiment can be described thus: HLA-A2 stabilization assay using T2 cells. Format: binding. Conditions: Table 4 (Examples 1 and 2); EC50 of peptide titration on T2 cells; read-out: Affinity for HLA.A2.01.

Experiment [2] deals with ROPN1 or ROPN1B over-expressing MDA-MB231 tumor cells. The experiment can be described thus: IFNg production of TCR T cells co-cultured with ROPN1 or ROPN1B over-expressing tumor cells (endogenously processed epitope). Format: cell-based, human. To be noted: Table 4; responding TCRs / TCRs tested, T cells transduced with TCR specific for the epitope. On the procedure: In a first series of in vitro tests, TCR-transduced T cells (6×10^4/well in a 96-well plate) were co-cultured with ROPN1 or ROPN1B over-expressing MDA-MB231 tumor cells (2×10^4/well) in a total volume of 200 μl of T cell medium for 24 h at 37° C. The ROPN1 or ROPN1B over-expressing tumor cells were generated as described under ‘generation and culture of cell lines and T cells’ (see above), and tumor cells were pre-treated 48 h with IFN-Y before co-culture with T cells. […] T cells that fulfilled these criteria (examples in FIG. 10A) were assessed for their sensitivity towards their cognate epitope. […] EC50 values were calculated using GraphPad Prism 5 software.

Experiment [3] deals with CD8+ T cells. The experiment can be described thus: peptide:MHC multimer/tetramer staining of enriched T cells (flow cytometry). It is filed as cell-based, human. Conditions: Table 4; enriched T cells after enrichment cycles. The procedure: as §1
Following enrichment, T cells were tested for ROPN1 and/or ROPN1B epitope-specific IFNY production. To this end, T2 cells (1×10^6/mL) were loaded with peptide (20 ng/mL) for 30 min, after which T cells (1×10^5) were cultured in a 1:1 ratio with T2 cells in a round bottom 96-wells plate for 18 h. Supernatant was collected and IFN-γ production was measured with an Enzyme-linked immunosorbent assay (ELISA, BioLegend) according to the manufacturer's protocol (FIG. 9A). T2 cells loaded with an irrelevant peptide were included as a negative control. T cell IFNg production was considered epitope-specific in case levels exceeded 200 pg/ml, and levels were minimally twice as high as for irrelevant peptide (see for full listing of criteria, FIG. 8). T cells that fulfilled these criteria were stained with peptide:MHC (pMHC) tetramers to determine the frequency of epitope-specific T cells. Empty Loadable HLA Tetramers (5 μL, Tetramer shop, Kongens Lyngby, Denmark) were incubated with 0.5 μL peptide (200 μM) for 30 min on ice. Complexes of pMHC were centrifuged (3300 g, 5 min) and incubated with 0.1×10^6 T cells for 15 min at 37° C. in the dark. Next, an antibody cocktail containing CD3-FITC (1:30, BD) and CD8-APC (1:300, eBiosciences) was added and incubated for an additional 30 min at 4° C. in the dark. Finally, T cells were washed twice and fixed with 1% paraformaldehyde (PFA), after which events were acquired with FACSCelesta (BD) and analyzed using FlowJoX software.
On the technique in general: A flow cytometer gives signals particle by particle.

For experiment [4], the target named is MLN epitope (…) presented by HLA-A2 on cells (human). As to the kind of experiment: cell-based or functional assay.
Experiment [5] has as its target T2, HLA-A2 (HLA-A2:01) on T2 cells (human).
T2 construct: detected with anti-HLA-A2 mAb BB7.2
As to the kind of experiment: HLA-A2 stabilization assay on T2 cells, peptide titration (Example 2); column Affinity for HLA.A2.01 (M).

For experiment [6], the target named is T2, HLA-A2 (HLA-A2:01) on T2 cells. The experiment can be described thus: HLA-A2 stabilization assay on T2 cells, peptide titration; amplitude relative to that of reference peptide YLE [panel D].
Experiment [7] shares this target. As to the kind of experiment: HLA-A2 stabilization assay on T2 cells (anti-HLA-A2-PE, flow cytometry), single peptide concentration [panel D].
For experiment [8] the target is unchanged. The experiment can be described thus: HLA-A2 stabilization assay on T2 cells (anti-HLA-A2-PE, flow cytometry), single peptide concentration 25 ug/mL [panel E].
For experiment [9] the target is unchanged. The experiment can be described thus: HLA-A2 stabilization assay on T2 cells, peptide titration; amplitude relative to that of reference peptide YLE; EC50 cell is 'x' [panel D].
Experiment [10] has the same target. The experiment can be described thus: HLA-A2 stabilization assay on T2 cells, peptide titration; EC50 calculated with GraphPad [panel D].
For experiment [11] the target is unchanged. As to the kind of experiment: HLA-A2 stabilization assay on T2 cells, peptide titration; EC50 calculated with GraphPad [panel E].
For experiment [12] the target is unchanged. As to the kind of experiment: HLA-A2 stabilization assay on T2 cells, peptide titration; amplitude = highest data point corrected for baseline [panel E].
The target is the same in experiment [13]. The experiment can be described thus: HLA-A2 stabilization assay on T2 cells (anti-HLA-A2-PE, flow cytometry), single peptide concentration [panel B; D00018 Figure 7 continued, panel D].
For experiment [14] the target is unchanged. The experiment can be described thus: HLA-A2 stabilization assay on T2 cells (anti-HLA-A2-PE, flow cytometry), single peptide concentration [panel C; D00007 Figure 3 continued, panel E].

Regarding `CC[C@H](C)[C@H](NC(=O)[C@H](CC(C)C)NC(=O)CNC(=O)[C@H](CC(=O)O)NC(=O)[C@@H]1CCCN1C(=O)CNC(=O)[C@@H](NC(=O)[C@@H](NC(=O)[C@@H](N)CCC(=O)O)C(C)C)[C@@H](C)CC)C(=O)N[C@H](C(=O)N[C@H](C(=O)O)C(C)C)[C@@H](C)O` (H-EVIGPDGLITV-OH; N-terminus and C-terminus assumed), the “T cell responses observed (IFNg) against epitope” value in the experiment on CD8+ T cells [1] is listed as 2/2 co-cultures. In addition, the EC50 on HLA-A2 turned out to be 655 nM. Further, in experiment [2], the “T cell responses observed (IFNg) against endogenously presented epitope” value is given as 1/7 responses. The “pMHC staining % pMHC+ CD8+ in CD3+” value in the experiment with CD8+ T cells [3] is reported as 8.25%.

B1: MLN-TCR2 (epitope 1 (MLN)-specific TCR) (TCR, V domains shown)
V domain 1: RGEDVEQSLFLSVREGDSSVINCTYTDSSSTYLYWYKQEPGAGLQLLTYIFSNMDMKQDQRLTVLLNKKDKHLSLRIADTQTGDSAIYFCAEDGGGSYIPTFGRGTSLIVHP
V domain 2: EAGVTQFPSHSVIEKGQTVTLRCDPISGHDNLYWYRRVMGKEIKFLLHFVKESKQDESGMPNNRFLAERTGGTYSTLKVQPAELEDSGVYFCASSPGPGQNSPLHFGNGTRLTVTE
As to B1, the “EC50 of T cell IFN-gamma production, peptide titration on BSM cells” value in experiment [4] was determined as 11 nM.

B2: Epitope 10 (FLY-B) peptide FLYTYIAEV of ROPN1B (peptide)
peptide: FLYTYIAEV
notes: Synthetic peptide
In experiment [5], B2 returned an EC50 of 21100 nM. Besides, the Amplitude in [6] is 0.593 relative to YLE. This molecule also displayed a Minimum stability in experiment [7] of 1.42 fold change over baseline.

B3: YIAEVDGEI (peptide)
peptide: YIAEVDGEI
notes: ROPN1B, predicted
Turning to B3, the Minimum stability in experiment [8] was found to be 1.16 fold change over baseline; in experiment [7] it was 1.41 fold change over baseline. In addition, the Amplitude in [9] was 0.939 relative to YLE.

B4: NY-ESO1 peptide SLLMWITQV (peptide)
peptide: SLLMWITQV
notes: also called NY-ESO peptide SLL
On to B4, for which the Amplitude in experiment [6] was 0.93 relative to YLE; in experiment [12], 4220 geometric mean normalized to baseline. Further, the EC50 in experiment [10] and in experiment [11] was 5080 nM each time.

B5: Epitope 16 peptide AELTPELLKI (10-mer derived from immunopeptidome) (peptide)
peptide: AELTPELLKI
notes: Eluted from ROPN1B-overexpressing MDA-MB231 cells; mapped in silico to HLA-B40:01
In the case of B5, the results for the Minimum stability in experiment [8] and in experiment [7] were 1.17 fold change over baseline and 1.08 fold change over baseline, respectively. For the same molecule, the binding result in experiment [13] is on record as “no binding”.

B6: RLIIRAEEL (peptide)
peptide: RLIIRAEEL
notes: ROPN1 and ROPN1B, predicted
B6: the Minimum stability in experiment [8] and in experiment [7] was 0.91 fold change over baseline each time. Besides, the binding result in experiment [14] was “no binding (tested: 25 ug/mL)”.

B7: GVTITKTLK (peptide)
peptide: GVTITKTLK
notes: ROPN1A and ROPN1B, eluted
Turning to B7, in [6], the Amplitude is 0.489 relative to YLE. Besides, the EC50 in experiment [10] was 570 nM. Further, the Minimum stability in experiment [7] was 1.18 fold change over baseline.

B8: SALGVTITK (peptide)
peptide: SALGVTITK
notes: ROPN1A and ROPN1B, eluted
B8 showed a Minimum stability in experiment [7] of 0.92 fold change over baseline. Besides, the binding result in [13] is reported as “no binding”.

B9: LPRIPFSTF (peptide)
peptide: LPRIPFSTF
notes: ROPN1B, eluted
With B9, in [6], the Amplitude is 0.38 relative to YLE. For the same molecule, in [10], the EC50 is 66.4 nM. Besides, the Minimum stability in [7] stood at 1.14 fold change over baseline.

B10: Epitope 11 (EVI) peptide EVIGPDGLITV of ROPN1B (peptide)
peptide: EVIGPDGLITV
notes: Synthetic peptide
The molecule B10 gave an EC50 in experiment [5] of 655 nM. Moreover, the Amplitude in experiment [6] is 1.12 relative to YLE. In addition, in experiment [7], the Minimum stability came to 1.57 fold change over baseline.
